# ± gives the standard deviation of the averaged measurements.
# Test system: Saccharomyces cerevisiae
# Assay: protein stability index of tFT-peptide fusion (C-terminal peptide) (PSI (0-1 scale)); higher = more stable (slower turnover)
# Settings: genetic background: wild type; temperature: 30 C
# 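Note: PSI is a weighted mean of sequencing reads over stability bins, variants kept only with over 10 reads, mCherry proximal and sfGFP distal, peptide attached via GGGS linker.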
row,Sequence,protein stability index
1,PPLPPPPASPPP,0.589 ± 0.045
2,PPLPPPPPLLPP,0.6764 ± 0.0065
3,PPLPPPSSPLFP,0.714 ± 0.087
4,PPLPPRPTPPPR,0.711 ± 0.04
5,PPLPSPPPPSSP,0.7157 ± 0.0022
6,PPLRFLSVSSSP,0.6741 ± 0.003
7,PPLRLASSPPPV,0.736 ± 0.062
8,PPLSCSPPLAPL,0.695 ± 0.019
9,PPLSLPSSCPSP,0.652 ± 0.1
10,PPLSPLSPLAPP,0.712 ± 0.038
11,PPLTPPPPTPPP,0.635 ± 0.057
12,PPLTPSPPRSFP,0.651 ± 0.08
13,PPNLYRGVQGPA,0.682 ± 0.0099
14,PPNPLPPAFTPP,0.715 ± 0.027
15,PPNPPPGPTVPF,0.768 ± 0.084
16,PPPALEPSPKEL,0.781 ± 0.057
17,PPPAPPPAIPHP,0.687 ± 0.0073
18,PPPAPPTFPLRS,0.684 ± 0.087
19,PPPAPRRTRRPS,0.698 ± 0.047
20,PPPARLSLPPPD,0.694 ± 0.007
21,PPPASRPPHPTL,0.746 ± 0.026
22,PPPFLTPPPPHS,0.709 ± 0.026
23,PPPFPLLPRYGF,0.657 ± 0.066

row,Sequence,protein stability index
1,PPPFPPAPRHPP,0.614 ± 0.013
2,PPPFPPPTLPPP,0.736 ± 0.039
3,PPPFSPLPPGPP,0.699 ± 0.0077
4,PPPGPDGVASNF,0.685 ± 0.053
5,PPPHPPRRLLPP,0.69 ± 0.065
6,PPPHPRPSPPSP,0.702 ± 0.048
7,PPPHRPWSPVPP,0.7158 ± 0.0034
8,PPPISTLSSSPS,0.582 ± 0.059
9,PPPKAPHSSPNL,0.675 ± 0.072
10,PPPLASRLLSFL,0.713 ± 0.022
11,PPPLHPRYDPPA,0.685 ± 0.025
12,PPPLLAPHPPPP,0.697 ± 0.01
13,PPPLLPFPPIPR,0.697 ± 0.033
14,PPPLPFPPSPPL,0.681 ± 0.063
15,PPPLPLSTPPPL,0.671 ± 0.014
16,PPPLPPPPPLPP,0.589 ± 0.038
17,PPPLPPPPPPSP,0.782 ± 0.083
18,PPPLPPSSPTYS,0.646 ± 0.11
19,PPPLPRRPASPL,0.652 ± 0.014
20,PPPLPSPPAFRP,0.635 ± 0.045
21,PPPLPTPSLPPP,0.70185 ± 0.00011
22,PPPLPYKAPRIL,0.7068 ± 0.0036
23,PPPLRAPPLSLP,0.62 ± 0.0068

row,Sequence,protein stability index
1,PPPPAPYRPPSC,0.682 ± 0.0054
2,PPPPATRPSPCY,0.706 ± 0.048
3,PPPPDHPRSSPV,0.688 ± 0.037
4,PPPPDPWTSPRP,0.734 ± 0.027
5,PPPPFSPPPPSA,0.7 ± 0.04
6,PPPPLLSPPSPP,0.714 ± 0.015
7,PPPPLPPIRPYP,0.719 ± 0.016
8,PPPPLPPQPPPP,0.654 ± 0.0073
9,PPPPLPPTPPPL,0.673 ± 0.025
10,PPPPPAPPPQPS,0.699 ± 0.011
11,PPPPPFSPLFLP,0.698 ± 0.12
12,PPPPPHSSPFRS,0.694 ± 0.01
13,PPPPPHTPPPYP,0.766 ± 0.05
14,PPPPPIPPPLVP,0.658 ± 0.012
15,PPPPPLPPLPTP,0.693 ± 0.022
16,PPPPPLPPPSPP,0.598 ± 0.036
17,PPPPPLRVPPPP,0.6753 ± 0.004
18,PPPPPPAFPPST,0.716 ± 0.027
19,PPPPPPLITPPL,0.666 ± 0.052
20,PPPPPPLLPSPL,0.705 ± 0.069
21,PPPPPPLPPPLP,0.704 ± 0.056
22,PPPPPPLPPSPL,0.634 ± 0.1
23,PPPPPPPASLLP,0.755 ± 0.056

row,Sequence,protein stability index
1,PPPPPPPFRPPT,0.651 ± 0.017
2,PPPPPPPLPLPP,0.64 ± 0.011
3,PPPPPPPLPRSP,0.721 ± 0.039
4,PPPPPPPPAPFP,0.687 ± 0.056
5,PPPPPPPPPLPR,0.657 ± 0.039
6,PPPPPPPPPQPS,0.67 ± 0.08
7,PPPPPPPPSPSP,0.742 ± 0.074
8,PPPPPPPTPIHP,0.72 ± 0.01
9,PPPPPPRPFPPP,0.66 ± 0.085
10,PPPPPPSVLSPP,0.722 ± 0.061
11,PPPPPPTPPPCL,0.694 ± 0.057
12,PPPPPRFSPHPP,0.695 ± 0.013
13,PPPPPRLPPRPP,0.6152 ± 0.0052
14,PPPPPRPPLSPP,0.725 ± 0.03
15,PPPPPSLACPPP,0.688 ± 0.037
16,PPPPPSPPLSPI,0.728 ± 0.063
17,PPPPRAISPLLP,0.666 ± 0.031
18,PPPPRPLKLFPP,0.588 ± 0.014
19,PPPPRPLPPAPP,0.63 ± 0.075
20,PPPPRPPHLSPP,0.7006 ± 0.0067
21,PPPPRPPRPYSV,0.767 ± 0.27
22,PPPPRPSPSIYP,0.732 ± 0.018
23,PPPPRRPPPAPF,0.6935 ± 0.0022

row,Sequence,protein stability index
1,PPPPRSLPLLPP,0.67 ± 0.073
2,PPPPSPRLSHSP,0.646 ± 0.018
3,PPPPYPPHPPSA,0.712 ± 0.027
4,PPPQDPTRRRRP,0.7116 ± 0.0054
5,PPPQPPPRHSPP,0.676 ± 0.031
6,PPPQSFLPRPPH,0.713 ± 0.0062
7,PPPRLPTSPDSP,0.722 ± 0.061
8,PPPRLSPTPSSR,0.721 ± 0.05
9,PPPRLTVPIPSS,0.6477 ± 0.0054
10,PPPRPDLTVGQP,0.654 ± 0.04
11,PPPRPLSPPFPF,0.641 ± 0.05
12,PPPRPPASLPSL,0.5833 ± 0.0033
13,PPPRPPPFPLSC,0.7134 ± 0.0065
14,PPPRPPSPPSFL,0.734 ± 0.041
15,PPPRRAPLSPSV,0.669 ± 0.042
16,PPPRSPLLPSPL,0.687 ± 0.019
17,PPPRSPPAPPPP,0.774 ± 0.052
18,PPPRSSLRLPSA,0.652 ± 0.063
19,PPPRTPPDNHPN,0.7256 ± 0.0047
20,PPPSAPLPPSPP,0.6424 ± 0.0043
21,PPPSPNPRENPK,0.671 ± 0.0071
22,PPPSPPCTPSLI,0.696 ± 0.036
23,PPPSPPPSLSLP,0.702 ± 0.025

row,Sequence,protein stability index
1,PPPSPSPPPAPG,0.6941 ± 0.006
2,PPPSPSSPPLSL,0.717 ± 0.099
3,PPPSSAPPPTPP,0.607 ± 0.15
4,PPPSSPSPPRCR,0.733 ± 0.1
5,PPPTSSPSPSIL,0.741 ± 0.07
6,PPPVLPSPRSDP,0.667 ± 0.17
7,PPPVPPPAPLLS,0.642 ± 0.074
8,PPPVPPSPSPPP,0.684 ± 0.013
9,PPPWPLPPGRLP,0.703 ± 0.059
10,PPPYHPDATFTT,0.7063 ± 0.0025
11,PPQPRLTPSPPL,0.697 ± 0.028
12,PPRASQSLLAVP,0.6555 ± 0.0035
13,PPRATPPFPLPP,0.648 ± 0.031
14,PPRLPPLPSSLL,0.721 ± 0.033
15,PPRPAPPPPPAL,0.723 ± 0.11
16,PPRPHPPPRPSS,0.74 ± 0.048
17,PPRPLRAEGLES,0.727 ± 0.028
18,PPRPPPLPPSPP,0.685 ± 0.094
19,PPRPPPLSPAPP,0.7 ± 0.069
20,PPRPPPPPRSTS,0.672 ± 0.024
21,PPRPPSPPPPPS,0.779 ± 0.16
22,PPRPSPPPPPRS,0.735 ± 0.09
23,PPRRLPALPSPL,0.774 ± 0.014

row,Sequence,protein stability index
1,PPRRSDSQQFSA,0.676 ± 0.029
2,PPRSLPPPPFPF,0.749 ± 0.01
3,PPRSLPPSPPSP,0.7384 ± 0.0047
4,PPRSPPLPPAPT,0.762 ± 0.013
5,PPRSPPLPPGLP,0.558 ± 0.039
6,PPRSPPPPRLLL,0.724 ± 0.048
7,PPRSRPLPALPS,0.647 ± 0.044
8,PPRYLCLGPGPC,0.691 ± 0.03
9,PPSGGYFSTCPP,0.731 ± 0.03
10,PPSKRSKKPFRI,0.698 ± 0.022
11,PPSLLFPLPLAS,0.649 ± 0.11
12,PPSLPPPPPVHP,0.648 ± 0.034
13,PPSLPRFTPRPA,0.718 ± 0.036
14,PPSLPSVRLSLS,0.685 ± 0.027
15,PPSLRPSSSPPI,0.724 ± 0.022
16,PPSLSPFSACLS,0.669 ± 0.064
17,PPSNPLTRAQCL,0.737 ± 0.14
18,PPSPDPPPPDLS,0.649 ± 0.017
19,PPSPEPGSPHRF,0.734 ± 0.018
20,PPSPHLVPYYLP,0.677 ± 0.014
21,PPSPLLVTLPPA,0.704 ± 0.022
22,PPSPPFDFSPQN,0.716 ± 0.014

# From the supplement of paper PMC10724198
